1 molecule from publication doi:10.1101/2025.09.02.673809 can be followed below.

In this test the target is HLA-DQ8 molecule (DQA1*03:01-DQB1*03:02) (human). As to the kind of experiment: ProImmune REVEAL MHC-peptide binding assay.

B1: insulin-derived 15-mer … (peptide)
peptide: EALYLVCGNAVEVLK
In turn, B1 registered a fold affinity against the reference peptide (T1D auto-antigen …) of 41 fold.
